Results taken from patent publication US20210101947A1 (UNIVERSITY OF SASKATCHEWAN, published 2021).
Primed or numbered codes have the meaning given here. No end group written: not given here. FITC′ = not defined here

Molecular target: T1, TAT2 cell penetrating peptide
T1 construct: Synthesized; two copies of a 9 amino acid TAT peptide
T1 peptide: RKKRRQRRRRKKRRQRRR
Assay: peptides mixed; uptake into MDA-MB-231 cells seen by fluorescence microscopy
Protocol: B. Using 0.1 mg/ml C43-4-FITC, weak toxicity is only observed when combined with TAT2, which is worsened with DOX. An equal number of cells were treated with TAT2 and C43-4-FITC alone or in complex, +/−0.5 uM DOX. 24 hours later, 4 random fields of cells were counted and combined. C. MDA-MB-231 cells were treated with 0.001 mg/ml peptide/TAT2 complex for 12 hours, or left untreated. Lysates were prepared and assessed with the antibodies shown. Cyclin B—APC substrate; the PARP […] cleavage fragment is an early sign of apoptosis; induction of total PARP indicates DNA damage; TFPI1 is a nucleolar MDR marker. D. Mice growing MDA-MB-231 cells stably expressing pcDNA-C43-4, injected or left untreated, with the C43-4-FITC/TAT2 complex (n=2 each). 100 ul of 0.01 mg/ml C43-4-FITC peptide was mixed with 25 ul of 1 mg/ml TAT2. The entire 125 ul was given to the mouse using an intraperitoneal (IP) injection. 1 injection/mouse was given in this experiment.
The 20 amino acid C43-4 peptide was synthesized with a C-terminal FITC epitope to allow visualization of the peptide within the cell using fluorescent microscopy. The TAT2 cell penetrating peptide, encoding 2 copies of a 9 amino acid peptide ([…]; SEQ ID NO: 26) was also synthesized. […] After 24 hours, and prior to imaging, 4 independent microscope fields were counted for each sample and added together to get a total cell number. […]

B1: C43-4-FITC (peptide)
peptide: NGSSHNDLRVRRLTLISRLC-{FITC′}
notes: The synthesized 20 amino acid C43-4 peptide with a C-terminal FITC; also called C43-4-FITC peptide
B1: binds.
